{
  "source": "the array DNA melting data of Ke et al.",
  "data": [
    {"assay": "melting temperature; melt of duplexes", "details": "sodium 0.0675 M; strand 1 µM", "units": {"Tm": "°C"}, "values": [
      {"substance": "CGACGTGCACAATGTGCTG+CAGCACATAACGCACGTCG ((((((((...((((((((+))))))))...))))))))", "Tm": 45.3},
      {"substance": "CGACGTGCGGTATGTGCTG+CAGCACATGGCGCACGTCG (((((((((..((((((((+))))))))..)))))))))", "Tm": 59.9},
      {"substance": "CGACGTGCATGATGTGCTG+CAGCACATCTGGCACGTCG ((((((((..(((((((((+)))))))))..))))))))", "Tm": 56.1},
      {"substance": "CGACGTGCTGCATGTGCTG+CAGCACATTCAGCACGTCG ((((((((((.((((((((+)))))))).))))))))))", "Tm": 57},
      {"substance": "CGACGTGCGGCATGTGCTG+CAGCACATATGGCACGTCG ((((((((...((((((((+))))))))...))))))))", "Tm": 49.5},
      {"substance": "CGACGTGCAATATGTGCTG+CAGCACATTGAGCACGTCG ((((((((...((((((((+))))))))...))))))))", "Tm": 50.4},
      {"substance": "CGACGTGCCCTATGTGCTG+CAGCACATGAAGCACGTCG ((((((((...((((((((+))))))))...))))))))", "Tm": 49},
      {"substance": "CGACGTGCGAAATGTGCTG+CAGCACATGTCGCACGTCG ((((((((((.((((((((+)))))))).))))))))))", "Tm": 58.9},
      {"substance": "CGACGTGCTCCATGTGCTG+CAGCACATGCTGCACGTCG ((((((((..(((((((((+)))))))))..))))))))", "Tm": 50.8},
      {"substance": "CGACGTGCTCTATGTGCTG+CAGCACATCAAGCACGTCG (((((((((..((((((((+))))))))..)))))))))", "Tm": 51.1},
      {"substance": "CGACGTGCTGAATGTGCTG+CAGCACATCATGCACGTCG ((((((((...((((((((+))))))))...))))))))", "Tm": 53.1},
      {"substance": "CGACGTGCATTATGTGCTG+CAGCACATCGCGCACGTCG ((((((((...((((((((+))))))))...))))))))", "Tm": 45.8},
      {"substance": "CGACGTGCCCCATGTGCTG+CAGCACATGTTGCACGTCG ((((((((..(((((((((+)))))))))..))))))))", "Tm": 51.8},
      {"substance": "CGACGTGCCGTATGTGCTG+CAGCACATCGTGCACGTCG ((((((((...((((((((+))))))))...))))))))", "Tm": 51},
      {"substance": "CGACGTGCCACATGTGCTG+CAGCACATGTTGCACGTCG ((((((((.((((((((((+)))))))))).))))))))", "Tm": 57.4},
      {"substance": "CGACGTGCCACATGTGCTG+CAGCACATCAGGCACGTCG (((((((((..((((((((+))))))))..)))))))))", "Tm": 53.2},
      {"substance": "CGACGTGCGTGATGTGCTG+CAGCACATCGAGCACGTCG ((((((((..(((((((((+)))))))))..))))))))", "Tm": 58.6},
      {"substance": "CGACGTGCATAATGTGCTG+CAGCACATCAGGCACGTCG ((((((((.(.((((((((+)))))))).).))))))))", "Tm": 50.2},
      {"substance": "CGACGTGCATGATGTGCTG+CAGCACATTATGCACGTCG ((((((((((.((((((((+)))))))).))))))))))", "Tm": 57.3},
      {"substance": "CGACGTGCCACATGTGCTG+CAGCACATCACGCACGTCG ((((((((...((((((((+))))))))...))))))))", "Tm": 46.2},
      {"substance": "CGACGTGCGGCATGTGCTG+CAGCACATGTCGCACGTCG (((((((((.(((((((((+))))))))).)))))))))", "Tm": 63.5},
      {"substance": "CGACGTGCGGAATGTGCTG+CAGCACATTAAGCACGTCG ((((((((..(((((((((+)))))))))..))))))))", "Tm": 55.8},
      {"substance": "CGACGTGCTCTATGTGCTG+CAGCACATACAGCACGTCG (((((((((.(((((((((+))))))))).)))))))))", "Tm": 52.5},
      {"substance": "CGACGTGCGTTATGTGCTG+CAGCACATCACGCACGTCG ((((((((((.((((((((+)))))))).))))))))))", "Tm": 56.8},
      {"substance": "CGACGTGCGTTATGTGCTG+CAGCACATCAGGCACGTCG ((((((((.(.((((((((+)))))))).).))))))))", "Tm": 49.9},
      {"substance": "CGACGTGCAGGATGTGCTG+CAGCACATAAAGCACGTCG ((((((((...((((((((+))))))))...))))))))", "Tm": 50.6},
      {"substance": "CGACGTGCCTGATGTGCTG+CAGCACATGTAGCACGTCG ((((((((...((((((((+))))))))...))))))))", "Tm": 49.3},
      {"substance": "CGACGTGCCAAATGTGCTG+CAGCACATATCGCACGTCG ((((((((.(.((((((((+)))))))).).))))))))", "Tm": 47.2},
      {"substance": "CGACGTGCCCGATGTGCTG+CAGCACATCACGCACGTCG ((((((((..(((((((((+)))))))))..))))))))", "Tm": 52.2},
      {"substance": "CGACGTGCTGCATGTGCTG+CAGCACATTGGGCACGTCG ((((((((...((((((((+))))))))...))))))))", "Tm": 50.1},
      {"substance": "CGACGTGCTCCATGTGCTG+CAGCACATATCGCACGTCG ((((((((...((((((((+))))))))...))))))))", "Tm": 46.4},
      {"substance": "CGACGTGCGCTATGTGCTG+CAGCACATATCGCACGTCG (((((((((.(((((((((+))))))))).)))))))))", "Tm": 56},
      {"substance": "CGACGTGCAAGATGTGCTG+CAGCACATAACGCACGTCG ((((((((...((((((((+))))))))...))))))))", "Tm": 48.6},
      {"substance": "CGACGTGCAGCATGTGCTG+CAGCACATGATGCACGTCG (((((((((.(((((((((+))))))))).)))))))))", "Tm": 61.3},
      {"substance": "CGACGTGCGAGATGTGCTG+CAGCACATAAGGCACGTCG ((((((((...((((((((+))))))))...))))))))", "Tm": 51.1},
      {"substance": "CGACGTGCTGAATGTGCTG+CAGCACATACGGCACGTCG ((((((((.(.((((((((+)))))))).).))))))))", "Tm": 54.1}
    ]}
  ]
}
